B1: Ribonuclease, P00648 (parent)
chain: MMKMEGIALKKRLSWISVCLLVLVSAAGMLFSTAAKTETSSHKAHTEAQVINTFDGVADYLQTYHKLPDNYITKSEAQALGWVASKGNLADVAPGKSIGGDIFSNREGKLPGKSGRTWREADINYTSGFRNSDRILYSSDWLIYKTTDHYQTFTKIR

Variants of: B1
Details: Bacillus amyloliquefaciens; pH 6.3; 25 °C; Urea; Fluorescence; MES 19.3 mM; reversible: yes; structure 1BNI; whole UniProt chain shown

Variant	ddG of mutation (higher = less stable)
T53S	0.22 kcal/mol
T53N	1.27 kcal/mol
T53D	-0.11 kcal/mol
T53G	1.34 kcal/mol
T53A	2.53 kcal/mol
T53E	0.27 kcal/mol
T53Q	1.87 kcal/mol
T73G	1.58 kcal/mol
T73V	2.31 kcal/mol
T73Q	1.72 kcal/mol
T73N	1.29 kcal/mol
T73A	2.11 kcal/mol
T73E	0.05 kcal/mol
